Changes are numbered by the printed parent chain.
T1: Peptidylarginine Deiminase isolated from rabbit skeletal muscle (rPAD2) (rabbit, UniProt P20717 1-665 (rat entry), limits assumed)
T1 construct: Bought (Sigma-Aldrich), isolated from rabbit skeletal muscle; also called Rabbit PAD2; rabbit PAD2
T1 chain: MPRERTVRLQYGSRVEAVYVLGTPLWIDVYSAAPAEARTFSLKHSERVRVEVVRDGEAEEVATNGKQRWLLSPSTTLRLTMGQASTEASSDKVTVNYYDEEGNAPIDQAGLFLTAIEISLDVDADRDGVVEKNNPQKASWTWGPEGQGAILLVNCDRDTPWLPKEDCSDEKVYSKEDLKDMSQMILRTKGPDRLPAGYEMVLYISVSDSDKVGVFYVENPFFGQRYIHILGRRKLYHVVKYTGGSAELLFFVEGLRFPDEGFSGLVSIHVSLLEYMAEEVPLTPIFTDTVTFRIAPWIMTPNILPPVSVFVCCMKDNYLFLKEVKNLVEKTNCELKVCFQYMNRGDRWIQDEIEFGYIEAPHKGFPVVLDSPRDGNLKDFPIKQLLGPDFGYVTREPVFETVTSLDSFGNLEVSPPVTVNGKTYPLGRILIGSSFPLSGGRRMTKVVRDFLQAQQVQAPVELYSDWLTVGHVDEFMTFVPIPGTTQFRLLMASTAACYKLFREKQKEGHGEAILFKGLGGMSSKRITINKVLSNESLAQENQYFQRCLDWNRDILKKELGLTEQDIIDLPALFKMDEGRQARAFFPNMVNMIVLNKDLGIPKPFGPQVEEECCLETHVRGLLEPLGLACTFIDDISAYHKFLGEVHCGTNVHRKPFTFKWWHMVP

B1: mAb #2 (antibody, V domains shown)
VH: QVQLQQPGAELVRPGASVKLSCKASGYTFTSYWMNWVKQRPGQGLEWIGMIDPSDSESYYNQMFKDKATLTVDKSSSTAYMQLSRLTSEDSAVYYCARKDYYAYGGAMDYWGQGTSVTVSS
VL: QIVLTQSPAILSASLGEEITLTCSANSSARYMHWYQQKSGTSPKLLIYSTSNLASGVPSRFSGSGSGTFYSLTLSSVEAEDAADYYCHQWSGYPTFGGGTKLEIKR
notes: Mouse IgG monoclonal antibody, unknown subtype; raised against rabbit PAD2
B2: mAb #6 (antibody, V domains shown)
VH: EVQLQQSGPDLVKPGASVKISCKASGYSFTAYYMHWVKQSHGESLEWIGRVNPNNGGSSYNQKFKGKAILTVHKSSNTAYMELRSLTSEDSAVYFCARGDYLPSLGYWGQGTSVTVSS
VL: DIVMTQSQKFMSTSVGDRVSVTCKASQNVDTTVAWYQQKPGQSPKALIYSASYRYSGVPDRFTGSGSGTDFTLTVTNVQSEDLAEYFCQQYDSYPFTFGSGTKLEIK
notes: as for B1
B3: mAb #34 (antibody, V domains shown)
VH: EVQLQQSGPDLVKPGASVKISCKASGYSFTSYYMHWVKQSHGKSLEWIGRVNPNSGYTTYNQKFKGKAILTVDKSSSTAYMELRSLTSEDSAVYYCARGDYLPSMDYWGHGTSVTVSS
VL: B2 VL with I2F, V21I, D30G, T32N, A46G, V75I, T76S, Y91F, D92N
notes: as for B1

Columns and labels:
[1] = biological target: T2, N165 (from amino acid 165 to the C-terminus) (human, UniProt Q9Y2J8 165-665); test: western blotting
T2 construct: also called N165 splice variant
T2 sequence (Q9Y2J8 165-665): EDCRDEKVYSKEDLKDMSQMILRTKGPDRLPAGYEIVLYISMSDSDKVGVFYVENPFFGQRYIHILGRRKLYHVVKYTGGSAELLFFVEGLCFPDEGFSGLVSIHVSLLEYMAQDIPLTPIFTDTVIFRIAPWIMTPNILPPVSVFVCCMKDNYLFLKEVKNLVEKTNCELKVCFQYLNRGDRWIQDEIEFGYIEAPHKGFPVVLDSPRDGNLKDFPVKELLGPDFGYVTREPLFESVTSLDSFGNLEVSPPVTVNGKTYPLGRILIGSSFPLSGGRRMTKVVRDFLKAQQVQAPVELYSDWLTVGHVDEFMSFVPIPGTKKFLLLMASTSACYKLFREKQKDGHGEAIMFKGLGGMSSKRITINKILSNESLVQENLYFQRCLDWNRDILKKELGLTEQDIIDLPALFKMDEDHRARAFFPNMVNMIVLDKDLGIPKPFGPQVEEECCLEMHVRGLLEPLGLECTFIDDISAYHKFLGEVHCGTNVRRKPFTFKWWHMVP
Procedure: (§1) Different samples were loaded in gels (same procedure as SDS-PAGE) along with a pre-stained marker. […] The membrane was blocked in wash buffer and sliced into strips. Antibody culture supernatant (2 mL) was added 1:1 in diluting buffer and incubated 0/N at 4° C. HRP-conjugated rabbit anti mouse IgG was added 1:3000 followed by incubation 1 h/RT. Finally, the strips were washed, incubated 10 min in acetate buffer (50 mM CH3COOH, 33.75 mM NaOH, pH 5.0) and stained in carbazole staining solution (0.04% 3-amino-9-ethylcarbazole and 0.015% H2O2) in acetate buffer. Antibodies with affinity against the target protein were observed as red bands, and the approximate size could be held against the marker loaded on the gel.
(§2) Different splice variants of PAD2 were evaluated by western blotting.

[2] = biological target: N343 (from amino acid 343 to the C-terminus) (human, UniProt Q9Y2J8 343-665); test: western blotting
Sequence of N343 (from amino acid 343 to the C-terminus) (Q9Y2J8 343-665): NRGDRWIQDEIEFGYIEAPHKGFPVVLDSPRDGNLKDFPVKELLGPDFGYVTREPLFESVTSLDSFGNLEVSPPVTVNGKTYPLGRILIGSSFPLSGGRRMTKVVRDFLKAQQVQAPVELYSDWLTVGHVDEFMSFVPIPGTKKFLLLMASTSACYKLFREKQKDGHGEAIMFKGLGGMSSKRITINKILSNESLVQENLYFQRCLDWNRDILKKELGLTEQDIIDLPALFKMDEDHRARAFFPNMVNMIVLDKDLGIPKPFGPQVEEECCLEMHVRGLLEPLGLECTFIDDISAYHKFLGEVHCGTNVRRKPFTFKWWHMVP
Procedure: as §1, §2

[3] = biological target: T1, Peptidylarginine Deiminase isolated …; test: western blotting, rPAD2
Procedure: FIG. 2. mAbs (monoclonal antibodies) reacting with rPAD2 in western blotting. Culture supernatants from mAbs #1-30, an irrelevant mAb (A) and no mAb (B) were tested 1:1 in diluting buffer against 1 μg/mL rabbit PAD2-unreduced. Rabbit anti mouse IgG (diluted 1:1000) was added, 1 h/RT. Development was performed in carbazole staining solution. Molecular weight markers (kDa) are indicated in the middle of the blot with Novex® Sharp Pre stained Protein Standard. A 4-12% Bis-Tris zoom gel was used.
as §1

[4] = biological target: T3, human recombinant PAD4 (hrPAD4) (human, UniProt Q9UM07 1-663); test: indirect ELISA, hrPAD4 coat 50 ng/mL
T3 construct: Recombinant, provided by Ger Pruijn; also called hPAD4; human PAD4
T3 sequence (Q9UM07 whole entry): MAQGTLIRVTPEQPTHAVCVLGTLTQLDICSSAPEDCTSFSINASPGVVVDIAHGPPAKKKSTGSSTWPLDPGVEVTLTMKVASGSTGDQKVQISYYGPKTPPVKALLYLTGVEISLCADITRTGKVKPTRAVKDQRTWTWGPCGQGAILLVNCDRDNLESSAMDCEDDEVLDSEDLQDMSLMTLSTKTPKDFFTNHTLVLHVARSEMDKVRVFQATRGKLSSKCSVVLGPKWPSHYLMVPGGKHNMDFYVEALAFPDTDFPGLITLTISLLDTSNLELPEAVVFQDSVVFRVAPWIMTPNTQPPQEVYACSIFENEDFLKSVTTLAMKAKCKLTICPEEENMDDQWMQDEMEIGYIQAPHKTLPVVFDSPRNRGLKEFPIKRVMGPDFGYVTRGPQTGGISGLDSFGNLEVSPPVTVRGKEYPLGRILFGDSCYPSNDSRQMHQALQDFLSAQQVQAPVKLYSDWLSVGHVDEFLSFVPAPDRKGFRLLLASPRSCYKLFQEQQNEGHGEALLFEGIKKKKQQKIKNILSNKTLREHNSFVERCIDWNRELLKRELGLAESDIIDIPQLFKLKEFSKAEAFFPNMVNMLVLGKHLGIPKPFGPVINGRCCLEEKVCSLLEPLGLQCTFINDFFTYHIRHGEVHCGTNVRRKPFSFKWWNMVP

Binder | binding result [1] | binding result [2] | binding result [3] | binding result [4]
B1 | no binding | no binding | binds | no binding
B2 | – | no binding | – | no binding
B3 | – | no binding | – | no binding

— patent US20150376294A1 (RIGSHOSPITALET, published 2015)
